Where no end group is shown, it is not given here. [ ]: non-standard residue; d: D form. pY = N[C@@H](Cc1ccc(OP(=O)(O)O)cc1)C(=O)O; pT = C[C@@H](OP(=O)(O)O)[C@H](N)C(=O)O

From paper PMC2723102 (2009) come the findings set out here.

Holding throughout (assay): SPR
(In general: SPR reads the build-up and loss of mass on a sensor chip optically.)

The target in one assay is T1, GST-X11β (domain).
T1 chain: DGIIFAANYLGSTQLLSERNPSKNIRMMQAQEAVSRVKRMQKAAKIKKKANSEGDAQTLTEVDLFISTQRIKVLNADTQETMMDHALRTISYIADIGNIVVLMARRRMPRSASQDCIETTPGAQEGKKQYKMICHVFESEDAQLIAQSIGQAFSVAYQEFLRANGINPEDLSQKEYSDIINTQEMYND

In assay [1] the target is GST-Grb2 domain (GST-SH2 recombinant protein).
In assay [2] the target is T2, GST-NUMB-p71 (region with the PTB domain).
T2 chain: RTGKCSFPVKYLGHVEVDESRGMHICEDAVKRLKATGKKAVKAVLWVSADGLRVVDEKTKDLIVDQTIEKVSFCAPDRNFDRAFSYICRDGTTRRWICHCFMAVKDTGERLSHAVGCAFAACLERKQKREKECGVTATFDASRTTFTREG

Sequence of GST-Grb2 domain (GST-SH2 recombinant protein) (chain, as listed by the source): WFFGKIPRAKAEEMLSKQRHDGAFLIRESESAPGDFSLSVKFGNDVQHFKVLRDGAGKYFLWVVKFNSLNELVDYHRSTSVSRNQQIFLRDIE

For the molecule VMLKKKQYTSIHHGVVEVDAAV[pT]PEERHLSKMQQNGYENPTYKFFEQMQN (also: strep-tag, position not given here) [strep-tag AID peptide phosphorylated on Thr-668], in the assay with GST-X11β (domain), the dissociation constant (Kd) came to 33.5 nM.

In the case of VMLKKKQYTSIHHGVVEVDAAV[pT]PEERHLSKMQQNG[pY]ENPTYKFFEQMQN (also: strep-tag, place not given here) [strep-tag AID peptide phosphorylated on Thr-668 and Tyr-682], the dissociation constant (Kd) in assay [1] came out at 0.413 nM; with GST-X11β (domain), 13.1 nM.

As for VMLKKKQYTSIHHGVVEVDAAVTPEERHLSKMQQNG[pY]ENPTYKFFEQMQN (also: strep-tag, place not given here) [strep-tag AID peptide phosphorylated on Tyr-682], in assay [1], the Kd is 2.57 nM.

On to VMLKKKQYTSIHHGVVEVDAAVTPEERHLSKMQQNGYENPTYKFFEQMQN (also: strep-tag, position not given here) [strep-tag AID peptide (APP intracellular domain, last 50 amino acids of APP), non-phosphorylated], for which the dissociation constant (Kd) in assay [2] was found to be 105 nM; with GST-X11β (domain), 8.48 nM.

In general, Kd refers to the concentration at which binding is half-saturated.
